# Data published in the RNAGym collection of RNA variant scans (doi:10.1093/nar/gkz1192).
# B1: CPEB3 Ribozyme (parent)
# chain: UAACAGGGGGCCACAGCAGAAGCGUUCACGUCGCAGCCCCUGUCAGAUUCUGGUGAAUCUGCGAAUUCUGCUGUAUAUCUC
# Variants of: B1
# Assay: self-cleavage, relative activity (ratio to wild type); higher = more cleavage; in vitro, sequencing
# How it was run: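 Relative activity compares each variant's cleaved/total read fraction with that of the unmutated ribozyme. To get these fractions, barcoded CPEB3 ribozyme libraries from rounds of error-prone PCR were transcribed with T7 RNA polymerase for 5 hours at 37°C and then given 15 min of DNase I treatment before EDTA was added. The RNAs were reverse transcribed with template switching and sequenced on Illumina, and DNA sequencing linked barcodes to variants. A minimum of 5 reads applied, and three batches were averaged.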
row,Variant,self-cleavage
1,UAACCGGGGGCCACAGCAGAAGCGUUCACGUCGCAGCCCCUGUCAUAUUCUGGUGAAUCUGCGAAUUCUGCUGUAUAUCUC [A5C G46U],0.06
2,UAACGGGGGGCCACAGCAGAAGCGUUCACGUCGCAGCCCCUGUCAGAUUCUGGUGAAUCUGCGAAUUCUGCUGUAUAUCUC [A5G],0.74
3,UAACGGGGGGCCACUGCAGAAGCGUUCACGUCGCAGCCCCUGUCAGAUUCUGGUGAAUCUGCGAAUUCUGCUGUAUAUCUC [A5G A15U],0.61
4,UAACGGGGGGCCACCGCAGAAGCGUUCACGUCGCAGCCCCUGUCAGAUUCUGGUGAAUCUGCGAAUUCUGCUGUAUAUCUC [A5G A15C],0.83
5,UAACGGGGGGCCACGGCAGAAGCGUUCACGUCGCAGCCCCUGUCAGAUUCUGGUGAAUCUGCGAAUUCUGCUGUAUAUCUC [A5G A15G],0.6
6,UAACCGGGGGCCACAGCAGAAGCGUUCACGUCGCAGCCCCUGUCAGAUUCUGGUGAAUCUGCGAAUUGUGCUGUAUAUCUC [A5C C68G],0.23
7,UAACCGGGGGCCACAGCAGAAGCGUUCACGUCGCAGCCCCUGUCAGAUUCUGGUGAAACUGCGAAUUCUGCUGUAUAUCUC [A5C U58A],0.49
8,UAACCGGGGGCCACAGCAGAAGCGUUCACGUCGCAGCCCCUGUCAGAUUCUGGUGAACCUGCGAAUUCUGCUGUAUAUCUC [A5C U58C],0.58
9,UAACCGGGGGCCACAGCAGAAGCGUUCACGCCGCAGCCCCUGUCAGAUUCUGGUGAAUCUGCGAAUUCUGCUGUAUAUCUC [A5C U31C],0.8
10,UAACCGGGGGCCACAGCAGAAGCGUUCACGACGCAGCCCCUGUCAGAUUCUGGUGAAUCUGCGAAUUCUGCUGUAUAUCUC [A5C U31A],0.75
11,UAACCGGGGGCCACAGCAGAAGCGUUCACGUCGCAGCCCCUGUCAGAUUCUGGUGAAUCUGCGAAUCCUGCUGUAUAUCUC [A5C U67C],0.22
12,UAACCGGGGGCCACAGCAGAAGCGUUCACGUCGCAGCCCCUGUCAGAUUCUGGUGAAUCUGCGAAUGCUGCUGUAUAUCUC [A5C U67G],0.27
13,UAACCGGGGGCCACAGCAGAAGCGUUCACGUCGCAGCCCCUGUCAGAUUCUGGUGAAUCUGCGAAUACUGCUGUAUAUCUC [A5C U67A],0.48
14,UAACCGGGGGCCACAGCAGAAGCGUUCACGUCGCAGCCCCUGUCAGAUUCUGGUGAAUCUGCGAAUUCUGCUGUAUAUCCC [A5C U80C],1.05
15,UAACCGGGGGCCACAGCAGAAGCGUUCACGUCGCAGCCCCUGUCAGAUUCUGGUGAAUCUGCGAAUUCUGCUGUAUAUCAC [A5C U80A],1.19
16,UAACCGGGGGCCACAGCAGAAGCGUUCACGUCGCAGCCCCUGUCAGAUUCUGGUGAAUCGGCGAAUUCUGCUGUAUAUCUC [A5C U60G],0.67
17,UAACCGGGGGCCACAGCAGAAGCGUUCACGUCGCAGCCCCUGUCAGAUUCUGGUGAAUCCGCGAAUUCUGCUGUAUAUCUC [A5C U60C],0.64

row,Variant,self-cleavage
1,UAACCGGGGGCCACAGCAGAAGCGUUCACGUCGCAGCCCCUGUCAGAUUCUGGUGAAUCAGCGAAUUCUGCUGUAUAUCUC [A5C U60A],0.64
2,UAACCGGGGGCCACAGCAGAAGCGUUCACGUCGCAGCCCCUGUCAGAUUCUGGGGAAUCUGCGAAUUCUGCUGUAUAUCUC [A5C U54G],0.81
3,UAACCGGGGGCCACAGCAGAAGCGUUCACGUCGCAGCCCCUGUCAGAUUCUGGCGAAUCUGCGAAUUCUGCUGUAUAUCUC [A5C U54C],1.09
4,UAACCGGCGGCCACAGCAGAAGCGUUCACGUCGCAGCCCCUGUCAGAUUCUGGUGAAUCUGCGAAUUCUGCUGUAUAUCUC [A5C G8C],0.36
5,UAACCGGAGGCCACAGCAGAAGCGUUCACGUCGCAGCCCCUGUCAGAUUCUGGUGAAUCUGCGAAUUCUGCUGUAUAUCUC [A5C G8A],0.46
6,UAACCGGGGACCACAGCAGAAGCGUUCACGUCGCAGCCCCUGUCAGAUUCUGGUGAAUCUGCGAAUUCUGCUGUAUAUCUC [A5C G10A],0.09
7,UAACCGGGGGCCACAGCAGAAGCGUUCACGUCGCAGCCCCUGUCAGAUUCUGGUGAAUCUGCGAAUUCUGCUGUAUACCUC [A5C U78C],0.89
8,UAACGGGGGGCCACAGCAGCAGCGUUCACGUCGCAGCCCCUGUCAGAUUCUGGUGAAUCUGCGAAUUCUGCUGUAUAUCUC [A5G A20C],0.58
9,UAACGGGGGGCCACAGCAGUAGCGUUCACGUCGCAGCCCCUGUCAGAUUCUGGUGAAUCUGCGAAUUCUGCUGUAUAUCUC [A5G A20U],0.37
10,UAACGGGGGGCCACAGCAGGAGCGUUCACGUCGCAGCCCCUGUCAGAUUCUGGUGAAUCUGCGAAUUCUGCUGUAUAUCUC [A5G A20G],0.54
11,UAACCGGGGGCCACAGCAGAAGCGUUCACGUCGCAGCCCCUGUCAGACUCUGGUGAAUCUGCGAAUUCUGCUGUAUAUCUC [A5C U48C],0.94
12,UAACCGGGGGCCACAGCAGAAGCGUUCACGUCGCAGCCCCUGUCAGAUUCUGGUGAAUCUGCGAAUUCGGCUGUAUAUCUC [A5C U69G],0.67
13,UAACCGGGGGCCACAGCAGAAGCGUUCACGUCGCAGCCCCUGUCAGAUUCUGGUGAAUCUGCGAAUUCAGCUGUAUAUCUC [A5C U69A],0.67
14,UAACCGGGGGCCACAGCAGAAGCGUUCACGUCGCAGCCCCUGUCAGAUUCUGGUGAAUCUGCGAAUUCCGCUGUAUAUCUC [A5C U69C],0.59
15,UAACGGGGGGCCACAGCCGAAGCGUUCACGUCGCAGCCCCUGUCAGAUUCUGGUGAAUCUGCGAAUUCUGCUGUAUAUCUC [A5G A18C],0.48
16,UAACGGGGGGCCACAGCUGAAGCGUUCACGUCGCAGCCCCUGUCAGAUUCUGGUGAAUCUGCGAAUUCUGCUGUAUAUCUC [A5G A18U],0.33
17,UAACGGGGGGCCACAGCGGAAGCGUUCACGUCGCAGCCCCUGUCAGAUUCUGGUGAAUCUGCGAAUUCUGCUGUAUAUCUC [A5G A18G],0.5
